Results as given in article PMC8415449.

Molecular target: MtrAB complex (Shewanella oneidensis MR-1)
Test: AUC; sedimentation equilibrium (SE-AUC), 20°C, 8,000, 10,000 and 12,000 rpm, absorbance at 410 nm; 50 mM sodium phosphate, 50 mM NaCl, 0.1% (v/v) Triton X-100, pH 7.5; 0.4 uM single proteins, 0.25 uM + 0.25 uM mixture; fits to a single non-interacting species

- stoichiometry N (Ru-MtrC per MtrAB): 1
Substance: Ru-MtrC (soluble Y657C MtrC labelled at Cys657 with a Ru(II)-bipyridine dye) (from UniProt Q8EG34 26-671) (natural protein)
